The source of these data is doi:10.1101/2020.05.01.072124.

Read-outs that look alike come from different tables or passages of the source.

In test [1] the target is Recombinant MEK1 (immobilised in SPR) (human) (UniProt Q02750). In words: SPR. (In general: SPR reads the build-up and loss of mass on a sensor chip optically.)
For test [2] the target is unchanged. Put plainly: SPR. The source holds these as a separate data set.

The Kd is the concentration at which binding is half-saturated.

Take “HIS-CCS (copper chaperone for superoxide dismutase) (from UniProt O14618 1-274) (natural protein)”: the values for the dissociation constant (Kd) in test [1] and in test [2] were 2090 nM and 8 µM, respectively.
